Earlier results in publication PMC4258470.

How the values were obtained:
[1] = target: p53 N-terminal transactivation domain (Homo sapiens) (UniProt P04637)
[2] = target: HPV16 E7 CR1-CR2 (Human papillomavirus type 16) (UniProt P03129)
Chain of HPV16 E7 CR1-CR2 (Human papillomavirus type 16) (P03129 1-40): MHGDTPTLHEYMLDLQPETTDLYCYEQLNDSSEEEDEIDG

Chain of p53 N-terminal transactivation domain (Homo sapiens) (P04637 1-61): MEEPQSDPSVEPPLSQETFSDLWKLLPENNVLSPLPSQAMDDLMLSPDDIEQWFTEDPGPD
Chain of CBP TAZ2 (P45481 1766-1847): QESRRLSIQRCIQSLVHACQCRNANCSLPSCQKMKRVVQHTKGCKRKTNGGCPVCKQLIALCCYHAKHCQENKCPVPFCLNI
Chain of pRb (P06400 2-928): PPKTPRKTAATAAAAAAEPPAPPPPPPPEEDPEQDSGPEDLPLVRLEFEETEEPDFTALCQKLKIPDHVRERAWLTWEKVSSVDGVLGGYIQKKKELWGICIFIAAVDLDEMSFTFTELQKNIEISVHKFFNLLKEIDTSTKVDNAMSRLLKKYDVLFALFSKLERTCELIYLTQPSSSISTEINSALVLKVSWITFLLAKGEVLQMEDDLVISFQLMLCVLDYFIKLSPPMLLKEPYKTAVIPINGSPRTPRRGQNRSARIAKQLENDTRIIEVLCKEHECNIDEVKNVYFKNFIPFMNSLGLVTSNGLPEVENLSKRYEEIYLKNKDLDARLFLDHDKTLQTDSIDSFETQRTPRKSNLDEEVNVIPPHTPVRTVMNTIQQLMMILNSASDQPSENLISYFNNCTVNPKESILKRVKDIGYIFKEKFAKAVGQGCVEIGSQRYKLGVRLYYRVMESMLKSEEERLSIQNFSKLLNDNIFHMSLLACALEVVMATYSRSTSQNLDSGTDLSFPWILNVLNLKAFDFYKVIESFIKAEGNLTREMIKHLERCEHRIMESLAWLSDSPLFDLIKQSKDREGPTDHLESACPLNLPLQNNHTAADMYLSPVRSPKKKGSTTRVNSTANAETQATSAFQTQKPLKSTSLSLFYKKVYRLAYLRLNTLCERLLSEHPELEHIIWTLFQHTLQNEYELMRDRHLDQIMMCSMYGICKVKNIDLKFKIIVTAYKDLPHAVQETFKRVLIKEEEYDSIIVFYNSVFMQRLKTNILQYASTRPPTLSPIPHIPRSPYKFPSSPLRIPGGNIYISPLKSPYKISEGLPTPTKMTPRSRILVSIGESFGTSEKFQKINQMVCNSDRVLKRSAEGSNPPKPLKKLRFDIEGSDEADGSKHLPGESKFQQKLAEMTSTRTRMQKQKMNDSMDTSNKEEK

Row | Kd [1] [nM] | Substance | Kd [2] [nM]
1 | 20 | CBP TAZ2 (from UniProt P45481) | –
2 | – | pRb (from UniProt P06400) | 2
